Blank lines part the entries; values can stand above or below the binder they belong to.
How the values were obtained:
mouse IL-1α = molecular target: T1, mouse IL-1α (mouse, UniProt P01582 115-270); test: cell-based or functional assay
T1 sequence (looked up): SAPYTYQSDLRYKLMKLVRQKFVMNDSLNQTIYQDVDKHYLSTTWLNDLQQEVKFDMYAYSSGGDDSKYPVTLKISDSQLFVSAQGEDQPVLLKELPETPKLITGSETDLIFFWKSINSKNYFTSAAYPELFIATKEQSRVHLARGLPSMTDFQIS

recombinant human IL-1α [1] = molecular target: T2, recombinant human IL-1α (human, UniProt P01583 113-271); test: cell-based or functional assay
T2 sequence (looked up): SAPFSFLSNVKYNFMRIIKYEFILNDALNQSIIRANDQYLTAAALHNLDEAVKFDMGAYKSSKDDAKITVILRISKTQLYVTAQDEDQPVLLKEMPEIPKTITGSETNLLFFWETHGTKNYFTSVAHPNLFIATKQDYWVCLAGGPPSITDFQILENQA

recombinant human IL-1α [2] = molecular target: T2, recombinant human IL-1α; test: SPR (Biacore)
recombinant human IL-1β [3] = molecular target: T3, recombinant human IL-1β (human, UniProt P01584 117-269); test: SPR (Biacore)
T3 construct: also called rhIL-1β; hIL-1β

recombinant human IL-1α [4] = molecular target: T2, recombinant human IL-1α; test: cell-based or functional assay; remark: listed apart in the source
recombinant human IL-1β [5] = molecular target: T3, recombinant human IL-1β; test: cell-based or functional assay
human IL-12 [6] = molecular target: T4, human IL-12 (human, UniProt P29459 23-219; P29460 23-328); test: SPR (Biacore)
T4 construct: also called hIL-12
T4 sequence (looked up) 1: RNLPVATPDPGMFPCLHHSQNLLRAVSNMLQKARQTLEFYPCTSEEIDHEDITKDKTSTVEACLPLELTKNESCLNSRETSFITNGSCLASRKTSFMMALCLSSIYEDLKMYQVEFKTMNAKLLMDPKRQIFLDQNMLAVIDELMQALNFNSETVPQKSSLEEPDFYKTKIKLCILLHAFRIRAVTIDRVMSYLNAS
T4 sequence (looked up) 2: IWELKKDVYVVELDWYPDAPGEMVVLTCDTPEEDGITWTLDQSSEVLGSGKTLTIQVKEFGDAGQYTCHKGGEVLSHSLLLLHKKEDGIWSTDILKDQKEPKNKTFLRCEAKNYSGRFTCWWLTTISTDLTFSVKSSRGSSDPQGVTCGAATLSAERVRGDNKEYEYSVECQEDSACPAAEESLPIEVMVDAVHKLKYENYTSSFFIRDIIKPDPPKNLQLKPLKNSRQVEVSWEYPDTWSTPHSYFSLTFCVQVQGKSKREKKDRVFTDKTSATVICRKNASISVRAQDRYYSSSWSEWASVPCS

human IL-18 [7] = molecular target: T5, human IL-18 (human, UniProt Q14116 37-193); test: SPR (Biacore)
T5 construct: also called hIL-18

human IL-12 [8] = molecular target: T4, human IL-12; test: cell-based or functional assay
human IL-18 [9] = molecular target: T5, human IL-18; test: cell-based or functional assay
recombinant human IL-1β [10] = molecular target: T3, recombinant human IL-1β; test: cell-based or functional assay; remark: listed apart in the source
mouse IL-1β = mouse IL-1β (mouse, UniProt P10749 118-269); test: cell-based or functional assay
mouse IL-1β, sequence (P10749 118-269 limits assumed): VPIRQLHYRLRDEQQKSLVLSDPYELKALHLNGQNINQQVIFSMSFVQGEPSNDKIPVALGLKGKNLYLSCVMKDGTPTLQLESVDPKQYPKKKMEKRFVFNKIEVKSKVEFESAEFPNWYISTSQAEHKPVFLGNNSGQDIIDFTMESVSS

B1: mouse anti-mouse IL-1α mAb clone 9H10 (antibody, V domains shown)
VH: QVILKESGPGILQPSQTLSLTCSFSGFSLSTYGTAVNWIRQPSGKGLEWLAQIGSDDRKLYNPFLKSRITLSEDTSNSQVFLKITSVDTEDSATYYCANGVMEYWGLGTSVTVSS
VL: SIVMTQTPKFLLVSAGDRVTITCKASQSVNHDVAWYQQMPGQSPKLLIYFASNRYTGVPDRFTGSGYGTDFTFTISTVQAEDLAVYFCQQDYSSPYTFGGGTKLEIKR
IC50 (M), in vitro potency (assay not described) (mouse IL-1α): 2e-10 M

B4: DVD1812SL (anti-IL12/IL18 DVD-Ig, 18-12-C, short linker) (bispecific antibody, human IgG1, kappa)
heavy: not shown
light: EIVMTQSPATLSVSPGERATLSCRASESISSNLAWYQQKPGQAPRLFIYTASTRATDIPARFSGSGSGTEFTLTISSLQSEDFAVYYCQQYNNWPSITFGQGTRLEIKRTVAAPQSVLTQPPSVSGAPGQRVTISCSGSRSNIGSNTVKWYQQLPGTAPKLLIYYNDQRPSGVPDRFSGSKSGTSASLAITGLQAEDEADYYCQSYDRYTHPALLFGTGTKVTVLGTVAAPSVFIFPPSDEQLKSGTASVVCLLNNFYPREAKVQWKVDNALQSGNSQESVTEQDSKDSTYSLSSTLTLSKADYEKHKVYACEVTHQGLSSPVTKSFNRGEC
notes: also called DVD1812HC-SL / DVD1812LC-SL
Kd (human IL-12 [6]): 1.82 nM
Kd (human IL-18 [7]): 0.191 nM
Potency (IC50, M), IL-12-induced IFN-γ production by PHA blast cells (human IL-12 [8]): 3.66e-10 M
Potency (IC50, M), KG-1 bioassay (IFN-γ production) (human IL-18 [9]): 4e-11 M

B6: DVD1812LL (anti-IL12/IL18 DVD-Ig, 18-12-C, long linker) (bispecific antibody, human IgG1, kappa)
heavy: not shown
light: EIVMTQSPATLSVSPGERATLSCRASESISSNLAWYQQKPGQAPRLFIYTASTRATDIPARFSGSGSGTEFTLTISSLQSEDFAVYYCQQYNNWPSITFGQGTRLEIKRTVAAPSVFIFPPQSVLTQPPSVSGAPGQRVTISCSGSRSNIGSNTVKWYQQLPGTAPKLLIYYNDQRPSGVPDRFSGSKSGTSASLAITGLQAEDEADYYCQSYDRYTHPALLFGTGTKVTVLGTVAAPSVFIFPPSDEQLKSGTASVVCLLNNFYPREAKVQWKVDNALQSGNSQESVTEQDSKDSTYSLSSTLTLSKADYEKHKVYACEVTHQGLSSPVTKSFNRGEC
notes: also called DVD1812HC-LL / DVD1812LC-LL
Kd (human IL-12 [6]): 0.113 nM
Kd (human IL-18 [7]): 0.162 nM
Potency (IC50, M), IL-12-induced IFN-γ production by PHA blast cells (human IL-12 [8]): 1.18e-10 M
Potency (IC50, M), KG-1 bioassay (IFN-γ production) (human IL-18 [9]): 7.8e-11 M

B7: hIL-1α/bDVD6a-Ig (bispecific antibody, human IgG1, kappa)
heavy: not shown
light: QIVLTQSPALMSASPGEKVTMTCSASSSVNYMYWYQQKPRSSPKPWIYLTSNLASGVPARFSGSGSGTSYSLTISSMEAEDAATYYCQQWNSNPYTFGGGTKLEMKRTVAAPSVFIFPPQIVLTQSPAIMSASPGEKVTITCSASSSVSYMHWFQQKPGASPKLWIYSTSNLASGVPARFSGSGSGTSYSLTVSRMEAEDAATYYCQQRSTYPYTFGGGTKLEIKRTVAAPSVFIFPPSDEQLKSGTASVVCLLNNFYPREAKVQWKVDNALQSGNSQESVTEQDSKDSTYSLSSTLTLSKADYEKHKVYACEVTHQGLSSPVTKSFNRGEC
notes: 6H3.1A4.3E11 - long linker - 6B12.4F6 - C (a-b-C); also called hIL-1a/b DVD6a-Ig
Kd (recombinant human IL-1α [2]): 1.06 nM
Kd (recombinant human IL-1β [3]): 2.09 nM
Potency (IC50) M, MRC-5 bioassay (recombinant human IL-1α [4]): 2.3 nM
Potency (IC50) M, MRC-5 bioassay (recombinant human IL-1β [5]): 70 nM

B8: murine monoclonal antibody 13F5.G5 (anti-hIL-1β) (antibody, V domains shown)
VH: QVQLQQSGAELVRPGSSVKISCKASGYAFSSYWMNWVKQRPGQGLEWIGQIYPGDGDTNYNGKFKGKATLTADKSSSTSYMQLSGLTSEDSAMYFCVRFPTGNDYYAMDYWGQGTSVTVSS
VL: NIVLTQSPASLAVSLGQRATISCRASESVDSYGNSYMHWYQQKPGQPPKLLIYLASNLESGVPARFSGSGSRTDFTLTIDPVEADDAATYYCQQNNEDPFTFGSGTKLEIKR
IC50 (M), MRC-5 bioassay (IL-8 production) (recombinant human IL-1β [10]): 6e-10 M

B9: hIL-1α/bDVD3a-Ig (bispecific antibody, human IgG1, kappa)
heavy: not shown
light: DIVMTQSQRFMSTSVGDRVSVTCKASQNVGTNIAWYQQKPGQSPRALIYSASYRYSGVPDRFTGSGSGTDFTLTISNVQSVDLAEYFCQQYTRYPLTFGGGTKLEIKRTVAAPETTVTQSPASLSMAIGEKVTIRCITSTDIDVDMNWYQQKPGEPPKLLISQGNTLRPGVPSRFSSSGSGTDFVFIIENMLSEDVADYYCLQSDNLPLTFGAGTKLELKRTVAAPSVFIFPPSDEQLKSGTASVVCLLNNFYPREAKVQWKVDNALQSGNSQESVTEQDSKDSTYSLSSTLTLSKADYEKHKVYACEVTHQGLSSPVTKSFNRGEC
notes: 18F4.2C8 - short linker - 1B12.4H4 - C (a-b-C); also called hIL-1a/b DVD3a-Ig
Kd (recombinant human IL-1α [2]): 0.837 nM
Kd (recombinant human IL-1β [3]): 63.7 nM
Potency (IC50) M, MRC-5 bioassay (recombinant human IL-1α [4]): 0.75 nM

B10: murine monoclonal antibody 3D12.E3 (anti-hIL-1α) (antibody, V domains shown)
VH: QIQLVQSGPELKKPGETVKISCKASGYTFRNYGMNWVKQAPGKDLKRMAWINTYTGESTYADDFKGRFAFSLETSASTAYLQINNLKNEDTATYFCARGIYYYGSSYAMDYWGQGTSVTVSS
VL: NIQMTQTTSSLSASLGDRVTISCRASQDISNCLNWYQQKPDGTVKLLIYYTSRLHSGVPSRFSGSGSGTDYSLTISNLEQEDIATYFCQQGKTLPYAFGGGTKLEINR
IC50 (M), MRC-5 bioassay (IL-8 production) (recombinant human IL-1α [1]): 6.7e-10 M

B12: murine monoclonal antibody 6H3.1A4.3E11 (anti-hIL-1α) (antibody, V domains shown)
VH: QVQLQQPGAELVRPGASVKLSCKASGYTFTTYWMNWVKQRPEQGLEWIGRIDPYDSETLYSQKFKDTAILTVDKSSSTAYMQLSSLTSEDSAVYYCARYGFDYWGQGTTLTVSS
VL: QIVLTQSPALMSASPGEKVTMTCSASSSVNYMYWYQQKPRSSPKPWIYLTSNLASGVPARFSGSGSGTSYSLTISSMEAEDAATYYCQQWNSNPYTFGGGTKLEMKR
IC50 (M), MRC-5 bioassay (IL-8 production) (recombinant human IL-1α [1]): 2.4e-10 M

Next, values leading:

IC50 (M), MRC-5 bioassay (IL-8 production) (recombinant human IL-1α [1]): 8.9e-11 M
B2: murine monoclonal antibody 18F4.2C8 (anti-hIL-1α) (antibody, V domains shown)
VH: EVQLQQSGAELVKPGASVKLSCTASGLNIKDTYMHWLKQRPEQGLEWIGRIDPANGNAKYDPRFLGKATITADTSSNTAYLQLSSLTSEDTAVYYCARGDGNFHFDYWGQGTTLTVSS
VL: DIVMTQSQRFMSTSVGDRVSVTCKASQNVGTNIAWYQQKPGQSPRALIYSASYRYSGVPDRFTGSGSGTDFTLTISNVQSVDLAEYFCQQYTRYPLTFGGGTKLEIKR

Kd (recombinant human IL-1α [2]): 0.82 nM
Kd (recombinant human IL-1β [3]): 0.697 nM
Potency (IC50) M, MRC-5 bioassay (recombinant human IL-1α [4]): 1 nM
Potency (IC50) M, MRC-5 bioassay (recombinant human IL-1β [5]): 0.75 nM
B3: hIL-1α/bDVD6b-Ig (bispecific antibody, human IgG1, kappa)
heavy: not shown
light: QIVLTQSPAIMSASPGEKVTITCSASSSVSYMHWFQQKPGASPKLWIYSTSNLASGVPARFSGSGSGTSYSLTVSRMEAEDAATYYCQQRSTYPYTFGGGTKLEIKRTVAAPSVFIFPPQIVLTQSPALMSASPGEKVTMTCSASSSVNYMYWYQQKPRSSPKPWIYLTSNLASGVPARFSGSGSGTSYSLTISSMEAEDAATYYCQQWNSNPYTFGGGTKLEMKRTVAAPSVFIFPPSDEQLKSGTASVVCLLNNFYPREAKVQWKVDNALQSGNSQESVTEQDSKDSTYSLSSTLTLSKADYEKHKVYACEVTHQGLSSPVTKSFNRGEC
notes: 6B12.4F6 - long linker - 6H3.1A4.3E11 - C (b-a-C); also called hIL-1a/b DVD6b-Ig

IC50 (M), MRC-5 bioassay (IL-8 production) (recombinant human IL-1β [10]): 3.2e-10 M
B5: murine monoclonal antibody 6B12.4F6 (anti-hIL-1β) (antibody, V domains shown)
VH: EVQLQQSGPELVKTGTSVKISCKASGYSFTGYYMHWVRQSHGKSLEWIGYISCYNGFTSYNPKFKGKATFTVDTSSSTAYIQFSRLTSEDSAVYYCARSDYYGTNDYWGQGTTLTVSS
VL: QIVLTQSPAIMSASPGEKVTITCSASSSVSYMHWFQQKPGASPKLWIYSTSNLASGVPARFSGSGSGTSYSLTVSRMEAEDAATYYCQQRSTYPYTFGGGTKLEIKR

IC50 (M), MRC-5 bioassay (IL-8 production) (recombinant human IL-1β [10]): 5.3e-10 M
B11: murine monoclonal antibody 1B12.4H4 (anti-hIL-1β) (antibody, V domains shown)
VH: QVHLKESGPGLVAPSQSLSITCTVSGFSLTDYGVSWIRQPPGKGLEWLGLIWGGGDTYYNSPLKSRLSIRKDNSKSQVFLKMNSLQTDDTAVYYCAKQRTLWGYDLYGMDYWGQGTSVTVSS
VL: ETTVTQSPASLSMAIGEKVTIRCITSTDIDVDMNWYQQKPGEPPKLLISQGNTLRPGVPSRFSSSGSGTDFVFIIENMLSEDVADYYCLQSDNLPLTFGAGTKLELKR

IC50 (M), in vitro potency (assay not described) (mouse IL-1β): 3.7e-10 M
B13: mouse anti-mouse IL-1β mAb clone 10G11 (antibody, V domains shown)
VH: EVQLQQSGPELVKPGTSVKMSCKTSGYTFTSYVMHWVKQKPGQGLEWIGYIIPYNDNTKYNEKFKGKATLTSDKSSSTAYMELSSLTSEDSAVYYCARRNEYYGSSFFDYWGQGTTLTVSS
VL: DIQMTQSPASLSASVGETVTITCRGSGILHNYLVWYQQKQGKSPQLLVYSAKILADGVPSRFSGSGSGTQYSLKINSLQPEDFGSYYCQHFWSTPFTFGSGTKLEIKR

Reference: patent publication US20140154256A1 (published 2014)
